This sample holds only a part of the variants without activity.
How the values were obtained:
[1] = test system: biotinyl-Phe-oxazolone; test: self-aminoacylation, catalytic enhancement (BFO) (fold over background); higher = more active; k-Seq, kA / k0A0; sequences stand for … in GGGAAUGGAUCCACAUCUACGAAUUC…UUCACUGCAGACUUGACGAAGCUG
Summary of the method: (§1)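 The uncatalyzed rate is the low-activity peak of a bimodal Gaussian fit, and catalytic enhancement is median kA divided by it. The kA values came from pseudo-first-order fits, with 1000 bootstraps, of per-sequence fraction reacted measured by streptavidin capture, triplicate qPCR and Illumina sequencing. Mutagenized RNA pools with a 21-nt variable region (0.43 μM) were reacted with each biotinyl-aminoacyl-oxazolone at 2–1250 μM in 50 μL HEPES/NaCl/KCl/MgCl2/CaCl2 buffer with 5% acetonitrile, pH 6.9–7.0, for 90 minutes at room temperature.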

[2] = test system: biotinyl-Ile-oxazolone; test: self-aminoacylation, catalytic enhancement (BIO) (fold over background); higher = more active; k-Seq, kA / k0A0; sequences stand for … in GGGAAUGGAUCCACAUCUACGAAUUC…UUCACUGCAGACUUGACGAAGCUG
Summary of the method: as §1

[3] = test system: biotinyl-Met-oxazolone; test: self-aminoacylation, catalytic enhancement (BMO) (fold over background); higher = more active; k-Seq, kA / k0A0; sequences stand for … in GGGAAUGGAUCCACAUCUACGAAUUC…UUCACUGCAGACUUGACGAAGCUG
Summary of the method: as §1

[4] = test system: biotinyl-Val-oxazolone; test: self-aminoacylation, catalytic enhancement (BVO) (fold over background); higher = more active; k-Seq, kA / k0A0; sequences stand for … in GGGAAUGGAUCCACAUCUACGAAUUC…UUCACUGCAGACUUGACGAAGCUG
Summary of the method: as §1

[5] = test system: biotinyl-Leu-oxazolone; test: self-aminoacylation, catalytic enhancement (BLO) (fold over background); higher = more active; k-Seq, kA / k0A0; sequences stand for … in GGGAAUGGAUCCACAUCUACGAAUUC…UUCACUGCAGACUUGACGAAGCUG
Summary of the method: as §1

[6] = test system: biotinyl-Trp-oxazolone; test: self-aminoacylation, catalytic enhancement (BWO) (fold over background); higher = more active; k-Seq, kA / k0A0; sequences stand for … in GGGAAUGGAUCCACAUCUACGAAUUC…UUCACUGCAGACUUGACGAAGCUG
Summary of the method: as §1

Sequence | self-aminoacylation [1] | self-aminoacylation [2] | self-aminoacylation [3] | self-aminoacylation [4] | self-aminoacylation [5] | self-aminoacylation [6]
CCACUCUUCAAGCAAUUGGUC [Fam1B.1 aminoacylation ribozyme variant] | 0.992 | 0.831 | 0.63 | 0.95 | 0.729 | 0.809
GUUCACCUAGGUUAUCGGGUG [Fam2.2 aminoacylation ribozyme variant] | 34 | 3.41 | 4.84 | 3.44 | 4.08 | 5.35
CUCCUUCAAGCAAUCGGUCUG [Fam1A.1 aminoacylation ribozyme variant] | 14.1 | 1.09 | 1.2 | 1.09 | 1.58 | 10.2
CUACUUCAAACAAUCGGGCGG [Fam1A.1 aminoacylation ribozyme variant] | 1.71 | 1.63 | 1.53 | 1.4 | 1.31 | 1.79
AAGUUUGCUCAUAGGCGCAAG [Fam3.1 aminoacylation ribozyme variant] | 0.996 | 0.735 | 0.839 | 0.852 | 0.577 | 0.876
AAGUUUGCUAUUAGACGCAAG [Fam3.1 aminoacylation ribozyme variant] | 1.08 | 0.577 | 0.712 | 0.894 | 0.691 | 0.55
AAGUUUGCUAAUAGUCGUUAG [Fam3.1 aminoacylation ribozyme variant] | 2.27 | 0.822 | 0.676 | 1.07 | 0.801 | 1.05
AUUACAUUGGUCAUCGAGUGA [Fam2.1 aminoacylation ribozyme variant] | 22.8 | 3.03 | 5.35 | 2.95 | 5.8 | 6.85
GUACUUCAAACAAUCGCUCUG [Fam1A.1 aminoacylation ribozyme variant] | 3.1 | 1.77 | 1.91 | 1.71 | 1.88 | 3.76
AUUCACCUCGGUCAUCGGGUA [Fam2.2 aminoacylation ribozyme variant] | 17 | 2.96 | 3.24 | 3.25 | 2.87 | 3.95
AUUCACCCAGGUCAUCUGGUG [Fam2.2 aminoacylation ribozyme variant] | 28.2 | 2.35 | 3.99 | 2.25 | 4.84 | 3
AAGUUUGCGAAGAGUCGCAAG [Fam3.1 aminoacylation ribozyme variant] | 1.49 | 1.36 | 0.955 | 1.21 | 1.04 | 1
ACUACCCUGGUCCUCGAGUGA [Fam2.1 aminoacylation ribozyme variant] | 17.6 | 2.6 | 4.59 | 2.25 | 3.84 | 4.3
AAGUUUACAAAUAGUCGCAAG [Fam3.1 aminoacylation ribozyme variant] | 2.51 | 1.92 | 1.51 | 1.66 | 1.8 | 1.98
AAUUUUGCUAAUAGUCUCAAG [Fam3.1 aminoacylation ribozyme variant] | 2.56 | 1.38 | 1.21 | 1.26 | 1.19 | 1.23
AUUGCCCUGGUCAUCGAGGGA [Fam2.1 aminoacylation ribozyme variant] | 4.65 | 1.93 | 3.9 | 2.22 | 3.97 | 3.16
CCACACUUGAAGCAAUCGGUC [Fam1B.1 aminoacylation ribozyme variant] | 0.778 | 0.836 | 0.782 | 0.926 | 0.735 | 0.805
CUACAUCAACCAAUCGGUCUG [Fam1A.1 aminoacylation ribozyme variant] | 1.44 | 0.643 | 0.748 | 0.781 | 0.554 | 0.796
AUUACCCUGGUUAACGAGUGA [Fam2.1 aminoacylation ribozyme variant] | 106 | 5.85 | 14.1 | 6.35 | 14.4 | 17.3
AUUCACUUACGUCAUCGGGUG [Fam2.2 aminoacylation ribozyme variant] | 38.4 | 3.35 | 5.61 | 3.36 | 7.03 | 5.63
AUUCAUGUAGGUCAUCGGGUG [Fam2.2 aminoacylation ribozyme variant] | 33.9 | 3 | 5.45 | 3.43 | 6.54 | 5.09
GUUACCCUGGUCAUCGAGUAA [Fam2.1 aminoacylation ribozyme variant] | 93.6 | 6.86 | 22.6 | 7.98 | 21.8 | 18.7
AUUACCUUGGUCAUUGAGUGA [Fam2.1 aminoacylation ribozyme variant] | 32.4 | 4.08 | 8.51 | 4.11 | 7.89 | 10.2
AAGUUUGCUAAUCGUCGCACG [Fam3.1 aminoacylation ribozyme variant] | 0.692 | 0.983 | 0.842 | 0.873 | 1.16 | 0.937
AUUCCCCUCGGUCAUCGGGUG [Fam2.2 aminoacylation ribozyme variant] | 211 | 14.8 | 21.1 | 14 | 30.8 | 22.6
ACGUUUGCUAAUAGUCGAAAG [Fam3.1 aminoacylation ribozyme variant] | 5.96 | 1.37 | 1.58 | 1.24 | 1.09 | 2.68

Sequence | self-aminoacylation [1] | self-aminoacylation [2] | self-aminoacylation [3] | self-aminoacylation [4] | self-aminoacylation [5] | self-aminoacylation [6]
AUUCACCUUGGUCAGCGGGUG [Fam2.2 aminoacylation ribozyme variant] | 25.6 | 2.71 | 3.99 | 3.16 | 5.32 | 3.71
AUUGACCUAGGUCAUCGGGGG [Fam2.2 aminoacylation ribozyme variant] | 12.8 | 3.41 | 3.21 | 3.04 | 4.57 | 3.93
AUUACCCCGGUCAUAGAGUGA [Fam2.1 aminoacylation ribozyme variant] | 43.1 | 4.47 | 7.91 | 3.96 | 8.34 | 8.65
CCACACUUCAACCAAUCGUUC [Fam1B.1 aminoacylation ribozyme variant] | 1.28 | 0.674 | 0.634 | 0.636 | 0.562 | 0.778
AUUCACCUAGGUCAUCGGCUC [Fam2.2 aminoacylation ribozyme variant] | 5.2 | 2.5 | 2.14 | 2.22 | 2.45 | 2.47
CCACACUUCAAGCAAUCCGCC [Fam1B.1 aminoacylation ribozyme variant] | 0.939 | 0.873 | 1.16 | 1.64 | 1.02 | 0.899
AUUCAACGAGGUCAUCGGGUG [Fam2.2 aminoacylation ribozyme variant] | 54.8 | 3.97 | 7.46 | 5.11 | 9.27 | 6.07
AUUACCCUAGACAUCGAGUGA [Fam2.1 aminoacylation ribozyme variant] | 37 | 3.77 | 8.71 | 4.07 | 7.96 | 9.09
CCACACUUCUAGCCAUCGGUC [Fam1B.1 aminoacylation ribozyme variant] | 1.09 | 0.924 | 0.683 | 1.01 | 0.778 | 0.962
AAGUGUGCGAAUAGUCGCAAG [Fam3.1 aminoacylation ribozyme variant] | 2.28 | 1.72 | 1.79 | 1.82 | 1.76 | 1.38
AUUGACCUGGUCAUCGAGUGA [Fam2.1 aminoacylation ribozyme variant] | 8.3 | 3.66 | 6.92 | 4.1 | 7.86 | 9.68
AUUACCCCGGUCAUCCAGUGA [Fam2.1 aminoacylation ribozyme variant] | 31.4 | 3.52 | 4.93 | 3.06 | 5.88 | 5.63
AUUACCCUGGUCCUCGCGUGA [Fam2.1 aminoacylation ribozyme variant] | 87.3 | 5.45 | 11 | 7.66 | 15.1 | 13.8
AUUACCCUGGUCAUCGGUUGA [Fam2.1 aminoacylation ribozyme variant] | 6.78 | 1.62 | 2 | 1.34 | 1.94 | 3.08
GUACUUCACACAAUCGGUCUG [Fam1A.1 aminoacylation ribozyme variant] | 1.5 | 1.34 | 1.02 | 1.3 | 1.11 | 1.67
CUACUUCAAACAAUCUGUCUU [Fam1A.1 aminoacylation ribozyme variant] | 0.839 | 0.872 | 0.559 | 0.74 | 0.576 | 0.495
CUACUACAAACGAUCGGUCUG [Fam1A.1 aminoacylation ribozyme variant] | 0.437 | 0.821 | 0.915 | 0.797 | 0.656 | 0.607
ACUCACCUAGGUCAGCGGGUG [Fam2.2 aminoacylation ribozyme variant] | 31.4 | 3.56 | 4.16 | 3.86 | 4.43 | 4.54
AUACACCUAGGUCAUCGGGUU [Fam2.2 aminoacylation ribozyme variant] | 1.76 | 2.4 | 2.15 | 2.14 | 2.79 | 2.69
AAGUUUGCUAGGAGUCGCAAG [Fam3.1 aminoacylation ribozyme variant] | 0.649 | 0.788 | 0.673 | 0.745 | 0.459 | 1.02
AUGCCCCUAGGUCAUCGGGUG [Fam2.2 aminoacylation ribozyme variant] | 63.9 | 5.52 | 8.48 | 5.39 | 11.1 | 7.6
AUUCACCUAGGUAAACGGGUG [Fam2.2 aminoacylation ribozyme variant] | 22.9 | 1.97 | 3.77 | 2.27 | 4.47 | 3.84
AUUCACCUAGGUCAUCUGCUG [Fam2.2 aminoacylation ribozyme variant] | 2.81 | 0.819 | 0.724 | 0.81 | 0.964 | 0.391
AUUCAGCUAGGUCCUCGGGUG [Fam2.2 aminoacylation ribozyme variant] | 55.4 | 4.67 | 6.2 | 4.46 | 9.02 | 6.56
CCACACUUCAUGCAAGCGGUC [Fam1B.1 aminoacylation ribozyme variant] | 0.633 | 1.08 | 0.854 | 0.835 | 1.01 | 0.681

— the supplement of paper PMC9233669
